Experimental data as given in patent publication CN106117361A.

Molecular target: CD3 on Jurkat cells (Jurkat靶标细胞) (UniProt P07766)
Assay: flow cytometry, culture supernatant on Jurkat cells

Sequence of UniProt P07766 (P07766 23-207): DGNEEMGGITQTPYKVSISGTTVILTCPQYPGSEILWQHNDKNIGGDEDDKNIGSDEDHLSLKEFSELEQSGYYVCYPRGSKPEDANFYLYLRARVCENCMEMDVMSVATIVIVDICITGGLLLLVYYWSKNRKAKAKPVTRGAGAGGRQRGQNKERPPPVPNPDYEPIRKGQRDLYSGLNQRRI

B1: A30322 抗CD3单域抗体 (sdAb) (VHH, not shown: large carriers)
VHH: EVQLVECGGGLVQAGGSLRLSCAASGRTFDTMGWFRQAPGKEREFVAAVRWSSGNTYYGNTVKGRFTISRDTATNTVYLEMNSLKHEDTAVYYCAARLAGRGAADHWGQGTQVTVSS
A 结合MFI of 521 MFI was found for B1 in this work.
